± gives the uncertainty stated by the source.
Assay: protein stability index of a GFP-peptide fusion (yeast GPS) (PSI 1-4); higher = more stable; sorted into four equal gates, so the index is relative within each strain
In short: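 The protein stability index combines read frequencies across sorting gates, each weighted by its gate number and then summed. To obtain those frequencies, a pooled yeast library of GFP fusions to tiled 17-residue yeast protein peptides, on a plasmid also expressing Cherry, was grown to mid-log phase in leucine-free medium. The cells were sorted into four equal gates by GFP/Cherry ratio before plasmid amplification by PCR and Illumina sequencing.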

Row | Sequence | protein stability index (doa10∆) | protein stability index (pdr5∆) | protein stability index (san1∆) | protein stability index (ubr1∆)
1 | GLLKRGDTVRILDTSQS [SNU114] | 3.08 ± 0.084 | 3.21 ± 0.1 | 3.15 ± 0.054 | 2.86 ± 0.1
2 | TRIKLLLTKNVSCYRPR [RPS6A] | 2.11 ± 0.22 | 2.64 ± 0.14 | 2.88 ± 0.11 | 2.94 ± 0.17
3 | VLDVDPKYAKQKDKSDT [ISW2] | 2.91 ± 0.11 | 3.01 ± 0.069 | 3.05 ± 0.14 | 3.03 ± 0.084
4 | QHDSSANEDEEEQLDAL [CSN12] | 3.55 ± 0.25 | 2.75 ± 0.21 | – | 3 ± 0.17
5 | SKQIFTHPKDTFYITRE [ARP9] | 3.11 ± 0.065 | 3.09 ± 0.056 | 2.93 ± 0.038 | 3.23 ± 0.039
6 | FLQSVDITGIRDVSDDV [GRR1] | 1.74 ± 0.041 | 2.12 ± 0.045 | 1.89 ± 0.055 | 1.69 ± 0.036
7 | VRIYSGLLKRGDTVRIL [SNU114] | – | 2.92 ± 0.17 | 2.66 ± 0.17 | 3.02 ± 0.1
8 | GEVLGITRFGLSKMRDS [RPO31] | 3.56 ± 0.12 | 3.26 ± 0.11 | 3.19 ± 0.075 | 3.46 ± 0.1
9 | LDPSLRAPIYHSKFRSS [YML031W/NDC1] | 2.02 ± 0.093 | 2.34 ± 0.064 | 1.71 ± 0.25 | 2.35 ± 0.072
10 | FFLRDTLLWNKNDKLIK [SNF5] | 2.4 ± 0.062 | 2.04 ± 0.059 | 2.06 ± 0.067 | 2.42 ± 0.027
11 | ETPKSNNSLSYHSGRLL [ITC1] | 3.22 ± 0.14 | 3.06 ± 0.12 | 2.63 ± 0.13 | 3.32 ± 0.078
12 | TGEWFSSYEEFLERFDF [ITC1] | 2.99 ± 0.098 | 1.99 ± 0.06 | 2.09 ± 0.12 | 2 ± 0.15
13 | GNEVSSLYPPPPPYVKF [MED7] | 3.17 ± 0.087 | 3.08 ± 0.065 | 2.74 ± 0.079 | 3.13 ± 0.049
14 | YKAKIKELENNLERLRS [YIL149C/MLP2] | 3.22 ± 0.095 | 1.65 ± 0.051 | 2.64 ± 0.078 | 3.11 ± 0.054
15 | ENVEKKEAALKTMIKTI [SMC2] | 1.93 ± 0.058 | 2.29 ± 0.077 | 1.73 ± 0.09 | 2.14 ± 0.039
16 | KETQQYELEFDTPTSGK [BRR2] | 2.99 ± 0.05 | 2.98 ± 0.055 | 3.05 ± 0.041 | 3.08 ± 0.045
17 | MSRSLANGIINVKEITE [SMC3] | 2.63 ± 0.092 | 2.8 ± 0.073 | 2.77 ± 0.12 | 2.87 ± 0.064
18 | DEVGRRSMLTVVRNMLA [YCG1] | 1.54 ± 0.077 | 2.09 ± 0.079 | 3.01 ± 0.13 | 1.52 ± 0.069
19 | IFGSGFGSADDTYPYLT [FAS1] | 2.3 ± 0.075 | 1.74 ± 0.059 | 1.73 ± 0.09 | 2.1 ± 0.078
20 | KDKLREFIPHSTEYMMQ [RPN6] | 3.46 ± 0.11 | 3.22 ± 0.11 | 2.83 ± 0.075 | 2.63 ± 0.087
21 | TSSAPAQNQGMFGAKPA [YGL172W/NUP49] | 2.44 ± 0.11 | 2.75 ± 0.089 | 1.92 ± 0.14 | 2.79 ± 0.069
22 | ESGLRPVSLLNSQLVGK [PCI8] | 3.31 ± 0.13 | 3.43 ± 0.096 | 3.27 ± 0.061 | 3.09 ± 0.27
23 | KELESIDVLLEQTTGGN [RPB4] | – | – | – | 3.22 ± 0.26
24 | TTMFENTGWSCSRIIKI [RGR1] | 3.61 ± 0.2 | 3.45 ± 0.13 | 3.37 ± 0.11 | 3.51 ± 0.1
25 | LLKKIIFEKELMYQIKK [SRB4] | 2.8 ± 0.073 | 2.67 ± 0.083 | 2.32 ± 0.09 | 2.17 ± 0.05
26 | TDSSALTYDRLEFATIR [PRE9] | 3.07 ± 0.081 | 3.27 ± 0.076 | 3.01 ± 0.056 | 3.18 ± 0.045
27 | SSRFIKGGSLYGLGLIY [RPN2] | 2.07 ± 0.09 | 2.1 ± 0.088 | 2.38 ± 0.061 | 1.99 ± 0.06

Row | Sequence | protein stability index (doa10∆) | protein stability index (pdr5∆) | protein stability index (san1∆) | protein stability index (ubr1∆)
28 | TTIKAIFDGNYGESDIH [YMR129W/POM152] | 3.23 ± 0.09 | 2.97 ± 0.14 | 3.58 ± 0.2 | 2.89 ± 0.12
29 | KTLNLFKQIKSADCELL [RPO31] | 1.22 ± 0.21 | 1.06 ± 0.035 | 1.23 ± 0.29 | 1.05 ± 0.094
30 | IVNHEQDLPKINDKRAN [SRB4] | 3.28 ± 0.19 | 3.21 ± 0.11 | 2.96 ± 0.098 | 3.08 ± 0.08
31 | TSPVTGATEKRKCAKPF [CSL4] | 1.89 ± 0.23 | 1.27 ± 0.15 | – | –
32 | FTNPSVDIQIINQYQLL [SWI1] | 1.44 ± 0.055 | 1.66 ± 0.07 | 1.43 ± 0.11 | 1.31 ± 0.063
33 | QMPLNSNGGNNMLPQRQ [SNF2] | 2.41 ± 0.047 | 2.79 ± 0.053 | 2.39 ± 0.064 | 2.54 ± 0.043
34 | SNNITSGLNRAISTGNW [RET1] | 3.13 ± 0.11 | 3.37 ± 0.11 | 3.25 ± 0.061 | 3 ± 0.079
35 | LFSLEKPNLNYFKSILL [SWI1] | 1.38 ± 0.056 | 1.59 ± 0.055 | 1.62 ± 0.082 | 1.86 ± 0.051
36 | KAFKNNSSKYYINEKES [SMC4] | 2.54 ± 0.12 | 2.42 ± 0.07 | 2.27 ± 0.083 | 1.72 ± 0.064
37 | SKTENVRRLEAQRNALN [RPT6] | 2.65 ± 0.17 | 2.91 ± 0.18 | – | 2.88 ± 0.074
38 | QGGAMNKKSEQALDISK [SRP72] | 3.07 ± 0.067 | 3.12 ± 0.058 | 3 ± 0.043 | 3.07 ± 0.063
39 | IDEKSQFVETIVSKSIE [RPN2] | 1.68 ± 0.1 | 2.19 ± 0.1 | 1.64 ± 0.096 | 1.98 ± 0.089
40 | KDLETLYNKIWTEASSS [ECM29] | 3.24 ± 0.2 | 2.84 ± 0.14 | 2.71 ± 0.091 | 2.51 ± 0.083
41 | QQIWKSPNFKNYLKYLE [SOH1] | 1.72 ± 0.047 | 1.91 ± 0.047 | 1.61 ± 0.047 | 2.22 ± 0.062
42 | KRKTNIIMFVGLQGSGK [SRP54] | 2.69 ± 0.067 | 2.78 ± 0.068 | 3.09 ± 0.06 | 2.87 ± 0.038
43 | LIEEEVEQDEGQCRTEL [YCS4] | 3.59 ± 0.13 | 3.53 ± 0.15 | – | 3.45 ± 0.12
44 | STATRNVTMIDDLIHFT [COR1] | 2.68 ± 0.097 | 2.81 ± 0.092 | 2.82 ± 0.086 | 2.89 ± 0.085
45 | PKQSDEYLKRVSVPVSG [SIR3] | 3.13 ± 0.086 | 2.55 ± 0.089 | 2.81 ± 0.096 | 2.72 ± 0.14
46 | IDETMMDKPLNFRILKS [SRB5] | 2.95 ± 0.14 | 3.09 ± 0.13 | 2.76 ± 0.087 | 2.79 ± 0.13
47 | KRYRLKESQLPRIQRAD [RPB5] | 2.86 ± 0.17 | 3.16 ± 0.15 | 3.02 ± 0.1 | 3.07 ± 0.082
48 | APSIGRWYQLIATGCKD [YGL100W/SEH1] | 1.52 ± 0.089 | 1.65 ± 0.068 | 1.64 ± 0.11 | 2.17 ± 0.071
49 | QTQAIAQQQQLSNYPQQ [YGR119C/NUP57] | 2.79 ± 0.058 | 3.15 ± 0.062 | 2.58 ± 0.048 | 2.97 ± 0.046
50 | IFSYGPHIQKMLSILEI [POP6] | 2.27 ± 0.12 | 1.93 ± 0.067 | 2.56 ± 0.15 | 2.24 ± 0.073
51 | NKEKSNSPTSFFDGSAS [YOR098C/NUP1] | 3.1 ± 0.068 | 3.07 ± 0.057 | 3.02 ± 0.041 | 2.95 ± 0.081
52 | FKATIQILQGICKNCSA [RPO31] | 1.69 ± 0.044 | 1.77 ± 0.038 | 1.76 ± 0.061 | 1.79 ± 0.046
53 | KNGLGLNFSTTAPANTT [MED2] | 2.16 ± 0.07 | 2.38 ± 0.047 | 2.15 ± 0.072 | 2.06 ± 0.042

From the supplement of paper PMC9732359
